# Experimental data as given in publication PMC4889959 (Nucleic Acids Research, 2016).
# B1: SLX4BTB wild type, yeast two-hybrid fusion [human] / SLX4BTB wild type, yeast two-hybrid fusion [human] (parent)
# chain 1: QDKHPDRGGRTLLSLGLLVADFGAMVNNPHLSDVQFQTDSGEVLYAHKFVLYARCPLLIQYVNNEGFSAVEDGVLTQRVLLGDVSTEAARTFLHYLYTADTGLPPGLSSELSSLAHRFGVSELVHLCEQVPIATDS
# chain 2: B1 chain 1
# Variants of: B1
# Experiment: yeast two-hybrid β-galactosidase assay
# Details: with SLX4BTB wild type, ONPG as substrate, SLX4BTB-F708R-AD + SLX4BTB-BD, parent: 710, read off a plot
row,response (OD420 reading),Variant
1,5.5,chain 1 QDKHPDRGGRTLLSLGLLVADFGAMVNNPHLSDVQFQTDSGEVLYAHKRVLYARCPLLIQYVNNEGFSAVEDGVLTQRVLLGDVSTEAARTFLHYLYTADTGLPPGLSSELSSLAHRFGVSELVHLCEQVPIATDS

# Same assay, conditions: with SLX4BTB wild type, ONPG as substrate, SLX4BTB-F681R-F708R-AD + SLX4BTB-BD, parent: 710, read off a plot
row,response (OD420 reading),Variant
1,5,chain 1 QDKHPDRGGRTLLSLGLLVADRGAMVNNPHLSDVQFQTDSGEVLYAHKRVLYARCPLLIQYVNNEGFSAVEDGVLTQRVLLGDVSTEAARTFLHYLYTADTGLPPGLSSELSSLAHRFGVSELVHLCEQVPIATDS
